The values that follow come from article PMC4873976, “Structural basis for haem piracy from host haemopexin by Haemophilus influenzae” (Nature Communications, 2016).

This assay concerns the target T1, Haemopexin (Oryctolagus cuniculus, UniProt P20058).
T1 chain: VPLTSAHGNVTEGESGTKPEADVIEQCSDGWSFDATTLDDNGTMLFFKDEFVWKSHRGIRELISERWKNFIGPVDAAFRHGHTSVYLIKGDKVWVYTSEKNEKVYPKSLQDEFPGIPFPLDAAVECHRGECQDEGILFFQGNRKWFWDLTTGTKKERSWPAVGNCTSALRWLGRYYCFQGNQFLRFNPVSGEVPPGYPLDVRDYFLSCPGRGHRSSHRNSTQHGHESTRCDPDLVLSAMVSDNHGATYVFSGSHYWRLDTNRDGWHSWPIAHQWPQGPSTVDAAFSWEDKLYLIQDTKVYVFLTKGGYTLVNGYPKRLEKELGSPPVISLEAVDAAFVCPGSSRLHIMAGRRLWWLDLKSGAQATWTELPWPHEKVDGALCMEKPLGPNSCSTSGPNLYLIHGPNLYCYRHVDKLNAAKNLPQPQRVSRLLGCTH
In words: ITC; given as Ka. In general terms: Isothermal titration calorimetry measures the heat released or taken up as one component is titrated into another.

Broadly, the Kd is the concentration at which binding is half-saturated. High values mean lower affinity, low ones higher affinity.

B1: HxuA (protein)
chain: STQGLPQQGLPQQGLPQEDKVVVGQATFDKTIADKMTINQTSDKVQINWHSFDIGQNKEVEFKQPSENSVAYNRVTGGNASQIQGKLTANGKVYLANPNGVIITKGAEINVAGLLATTKDLEQISENSNSYQFTRKTKDRQVVKEGQVINEGEIKAKDFVVLNGDEVINKGNINVEKNSTINGKVYLSSGYNFTFTLSDSGISVALEDNTVRGIVQNEGSIKAGEITLSAKGRKEALDSLVMNNGVLEATKVSNRNGKVVLSADNVQLNNESNIKGEIVNFGTEVTSNEDKKLKITSKTGSKVTSPKINFKGKSVNINGNFGRENSGTHYNEERKTLNTEVNIDVPGAENIRIADDKDNTETDSFIQTEALSSLLANNGKVNLKGNDVNISGNINIDSFRGTDSLLKLTNQGHINIDHADINSKGRLFVVTSLQNDVDFKSNITITDSKINLGNGAMGLGRSVNEDDYATRWKRAEKSQRKKFNVDMRNVVFNQVDEVILAGGFEKVNLDKIVATGQTNFYIDGGVSRNNSRYEYGVLDLDYRTQLSELEQGRRRWRYYRDLDLDMNKAYLYRFDLFAKNNSGRSTIKGTEINISNSNINLKNGFVHLLAENIKLDNSKVDITFDKDNSQDTLAQTNRLGMNGKVSMINSHIKIVGDEKEGISPTGTYATMFLIGELIGEKSSIFVKSHQGYTFKTDGDTKIAGKNSKEDLKITAINTGGRAAEEVLINGALGSADNDANIANMAFTIGDSANTKTTIENADITALAPNGGTAYLSSKDVEIEVKPNSNFTFFELPREKNLNQTKINGASTKLSERGFARLYDKINGVRASNLSAEQLNVTDASEKIINTKLVSSLDVEKLVSVAVCDAGNGCEEQQFGDKGNNTKVSVGELEAEQ
B1 yielded an equilibrium dissociation constant (Kd) of under 1 nM.
